Data taken from paper PMC11467371, “Structure‐based design of antibodies targeting the EBNA1 DNA‐binding domain to block Epstein–Barr virus latent infection and tumor growth”.

Target: EBNA1 DBD (Epstein-Barr virus (strain B95.8), UniProt P03211 461-607)
Assay: fluorescence polarization; EC50; 1 mM MgCl2; FP: 200 mM NaCl, 20 mM Tris-HCl pH 7.5, 1 mM MgCl2, 0.01% CHAPS; 20 nM FAM probe stock mixed 1:1 with 0.31-20 µM protein, 20 min; temperature not stated
Settings: protein: recombinant, tags: N-terminal 6xHis-SUMO, removed by ULP1, chain copies: 2, label: 5'-FAM, called 18-bp

EBNA1 DBD, sequence (P03211 461-607): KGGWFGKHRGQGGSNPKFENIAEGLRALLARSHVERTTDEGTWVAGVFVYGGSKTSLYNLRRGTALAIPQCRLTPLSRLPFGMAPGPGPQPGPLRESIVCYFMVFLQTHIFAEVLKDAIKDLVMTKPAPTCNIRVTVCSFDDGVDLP

| Binder | apparent K (half saturation) (blunt, one self-complementary strand printed, 2 copies) [nM] | apparent K (half saturation) (only the FAM strand is printed, complement implied) [nM] |
| --- | --- | --- |
| DNA01 (dsDNA) DNA 1: GGGTAGCATATGCTACCC DNA 2: GGGTAGCATATGCTACCC | 2130 |  |
| DNA02 (dsDNA) DNA 1: GGGTAACCACTGTTACCC DNA 2: GGGTAACAGTGGTTACCC |  | 1540 |
